Measured values taken from US20190262368A1.

How the values were obtained:
[1] = target: human LOX1 on cells (human LOX1 transfected CHO TREX cells; endogenous on HAECs) (human) (UniProt P78380); experiment: row label missing; by the order of Table 5 taken as AGE BSA/hLOX1 CHO competition (FMAT, DyLight 649 AGE-BSA as competitor), Mean
[2] = target: human LOX1 on cells (human LOX1 transfected CHO TREX cells; endogenous on HAECs) (human) (UniProt P78380); experiment: cell-based or functional assay
[3] = target: recombinant human LOX1 (R&D Systems) (human) (UniProt P78380); experiment: row label missing; by the order of Table 5 taken as CRP/hLOX1 competition (plate assay, biotin CRP as competitor, immobilised recombinant hLOX1), Mean
[4] = target: human LOX1 SNP K167N variant on transfected CHO TREX cells (human) (UniProt P78380); experiment: row label missing; by the order of Table 5 taken as oxLDL/K167N hLOX1 CHO competition (FMAT, DyLight 649 oxLDL as competitor), Mean
[5] = target: human LOX1 on cells (human LOX1 transfected CHO TREX cells; endogenous on HAECs) (human) (UniProt P78380); experiment: row label missing; by the order of Table 5 taken as oxLDL/hLOX1 CHO competition (FMAT, DyLight 649 oxLDL as competitor), Mean

23C11, commercially available mouse anti-LOX-1 antibody
IC50 [1]: 1.15 nM | IC50 (Mean) of oxLDL internalisation in hLOX1 CHO cells; row label missing, taken by the order of Table 5 [2]: 2.85 nM | IC50 (Mean) of oxLDL-dependent ROS generation in hLOX1 CHO cells; row label missing, taken by the order of Table 5 [2]: 10.1 nM | IC50 [3]: 11.1 nM | IC50 [4]: 1.31 nM | IC50 [5]: 2.2 nM
